# System: Escherichia coli TOP10
# Assay: shrunken log2 fold change of peptide-encoding DNA abundance (4.5 h post-induction vs induction); higher = less antimicrobial activity (less host growth inhibition)
# Details: time post-induction: 4.5 h; library: site-saturation at positions 5, 18, 19, 20
# 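Note: peptides expressed intracellularly from a pBAD plasmid library in pooled LB shake-flask culture, induced with 0.3% L-arabinose, DNA abundance read by NGS, three biological replicates, DESeq2 with apeglm shrinkage.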
row,Sequence,shrunken log2 fold change
1,RRIRERPPRLPRPRPRPPHRPRP,0.0387
2,RRIRERPPRLPRPRPRPPIKPRP,-0.414
3,RRIRERPPRLPRPRPRPPLFPRP,0.124
4,RRIRERPPRLPRPRPRPPLSPRP,-0.212
5,RRIRERPPRLPRPRPRPPMEPRP,-0.0809
6,RRIRERPPRLPRPRPRPPMHPRP,-0.171
7,RRIRERPPRLPRPRPRPPNMPRP,-0.251
8,RRIRERPPRLPRPRPRPPPGPRP,0.418
9,RRIRERPPRLPRPRPRPPQFPRP,-0.151
10,RRIRERPPRLPRPRPRPPRIPRP,-0.453
11,RRIRERPPRLPRPRPRPPSDPRP,0.0848
12,RRIRERPPRLPRPRPRPPVCPRP,-0.119
13,RRIRERPPRLPRPRPRPPVGPRP,0.0345
14,RRIRERPPRLPRPRPRPPWAPRP,0.176
15,RRIRERPPRLPRPRPRPQADPRP,-0.171
16,RRIRERPPRLPRPRPRPQDLPRP,-0.351
17,RRIRERPPRLPRPRPRPQDRPRP,-0.167
18,RRIRERPPRLPRPRPRPQEHPRP,-0.179
19,RRIRERPPRLPRPRPRPQFQPRP,-0.0426
20,RRIRERPPRLPRPRPRPQFSPRP,-0.0998
21,RRIRERPPRLPRPRPRPQGKPRP,-0.345
22,RRIRERPPRLPRPRPRPQHNPRP,-0.771

row,Sequence,shrunken log2 fold change
1,RRIRERPPRLPRPRPRPQINPRP,-0.586
2,RRIRERPPRLPRPRPRPQIRPRP,0.0242
3,RRIRERPPRLPRPRPRPQKRPRP,0.462
4,RRIRERPPRLPRPRPRPQKVPRP,-0.102
5,RRIRERPPRLPRPRPRPQNCPRP,-0.0646
6,RRIRERPPRLPRPRPRPQNDPRP,-0.551
7,RRIRERPPRLPRPRPRPQPSPRP,0.0462
8,RRIRERPPRLPRPRPRPQSPPRP,-0.062
9,RRIRERPPRLPRPRPRPQSYPRP,-0.0192
10,RRIRERPPRLPRPRPRPQVEPRP,0.0218
11,RRIRERPPRLPRPRPRPQWRPRP,-0.0529
12,RRIRERPPRLPRPRPRPQWVPRP,0.0428
13,RRIRERPPRLPRPRPRPQYFPRP,-0.891
14,RRIRERPPRLPRPRPRPQYVPRP,-0.215
15,RRIRERPPRLPRPRPRPRACPRP,0.177
16,RRIRERPPRLPRPRPRPRAGPRP,0.459
17,RRIRERPPRLPRPRPRPRAKPRP,0.192
18,RRIRERPPRLPRPRPRPRALPRP,0.0317
19,RRIRERPPRLPRPRPRPRAQPRP,0.22
20,RRIRERPPRLPRPRPRPRCAPRP,0.228
21,RRIRERPPRLPRPRPRPRCIPRP,-0.425
22,RRIRERPPRLPRPRPRPRCLPRP,0.0247

row,Sequence,shrunken log2 fold change
1,RRIRERPPRLPRPRPRPRCTPRP,-0.0287
2,RRIRERPPRLPRPRPRPRDCPRP,0.112
3,RRIRERPPRLPRPRPRPRDDPRP,0.0953
4,RRIRERPPRLPRPRPRPRDFPRP,-0.134
5,RRIRERPPRLPRPRPRPRDLPRP,0.023
6,RRIRERPPRLPRPRPRPRESPRP,-0.329
7,RRIRERPPRLPRPRPRPREYPRP,-0.242
8,RRIRERPPRLPRPRPRPRFFPRP,-0.00349
9,RRIRERPPRLPRPRPRPRGEPRP,-0.023
10,RRIRERPPRLPRPRPRPRIQPRP,-0.362
11,RRIRERPPRLPRPRPRPRKQPRP,0.00709
12,RRIRERPPRLPRPRPRPRMPPRP,-0.0437
13,RRIRERPPRLPRPRPRPRMTPRP,0.0697
14,RRIRERPPRLPRPRPRPRNIPRP,-0.095
15,RRIRERPPRLPRPRPRPRNMPRP,-0.228
16,RRIRERPPRLPRPRPRPRNQPRP,-0.312
17,RRIRERPPRLPRPRPRPRPIPRP,0.345
18,RRIRERPPRLPRPRPRPRPMPRP,-0.0942
19,RRIRERPPRLPRPRPRPRQQPRP,0.357
20,RRIRERPPRLPRPRPRPRRKPRP,0.11
21,RRIRERPPRLPRPRPRPRRSPRP,-0.021
22,RRIRERPPRLPRPRPRPRSDPRP,-0.323

row,Sequence,shrunken log2 fold change
1,RRIRERPPRLPRPRPRPRSGPRP,-0.049
2,RRIRERPPRLPRPRPRPRVAPRP,0.343
3,RRIRERPPRLPRPRPRPRWAPRP,0.425
4,RRIRERPPRLPRPRPRPRWFPRP,0.0416
5,RRIRERPPRLPRPRPRPRYNPRP,-0.672
6,RRIRERPPRLPRPRPRPSAAPRP,0.133
7,RRIRERPPRLPRPRPRPSAGPRP,-0.118
8,RRIRERPPRLPRPRPRPSCAPRP,-0.173
9,RRIRERPPRLPRPRPRPSDEPRP,-0.228
10,RRIRERPPRLPRPRPRPSDMPRP,-0.0552
11,RRIRERPPRLPRPRPRPSEWPRP,-0.0737
12,RRIRERPPRLPRPRPRPSFIPRP,-0.906
13,RRIRERPPRLPRPRPRPSGFPRP,0.0785
14,RRIRERPPRLPRPRPRPSGNPRP,-0.636
15,RRIRERPPRLPRPRPRPSHDPRP,-0.118
16,RRIRERPPRLPRPRPRPSHHPRP,-0.73
17,RRIRERPPRLPRPRPRPSIVPRP,-0.443
18,RRIRERPPRLPRPRPRPSKPPRP,0.0303
19,RRIRERPPRLPRPRPRPSMFPRP,-0.723
20,RRIRERPPRLPRPRPRPSMPPRP,-0.484
21,RRIRERPPRLPRPRPRPSMWPRP,-0.0377
22,RRIRERPPRLPRPRPRPSNPPRP,-0.681

row,Sequence,shrunken log2 fold change
1,RRIRERPPRLPRPRPRPSQAPRP,0.151
2,RRIRERPPRLPRPRPRPSRDPRP,-0.12
3,RRIRERPPRLPRPRPRPSREPRP,0.125
4,RRIRERPPRLPRPRPRPSRNPRP,-0.207
5,RRIRERPPRLPRPRPRPSSTPRP,-0.32
6,RRIRERPPRLPRPRPRPSTYPRP,-0.263
7,RRIRERPPRLPRPRPRPSVKPRP,-0.625
8,RRIRERPPRLPRPRPRPSVQPRP,-0.204
9,RRIRERPPRLPRPRPRPSWFPRP,-0.589
10,RRIRERPPRLPRPRPRPSWRPRP,-0.0751
11,RRIRERPPRLPRPRPRPSWSPRP,-0.0285
12,RRIRERPPRLPRPRPRPSYKPRP,-1.27
13,RRIRERPPRLPRPRPRPSYSPRP,-0.147
14,RRIRERPPRLPRPRPRPSYVPRP,-0.264
15,RRIRERPPRLPRPRPRPTAAPRP,0.456
16,RRIRERPPRLPRPRPRPTAQPRP,0.416
17,RRIRERPPRLPRPRPRPTCRPRP,-0.146
18,RRIRERPPRLPRPRPRPTCVPRP,-0.0193
19,RRIRERPPRLPRPRPRPTELPRP,-0.577
20,RRIRERPPRLPRPRPRPTEPPRP,0.0207
21,RRIRERPPRLPRPRPRPTFDPRP,-0.066

# Reference: the supplement of paper PMC9112550, “Optimization of the antimicrobial peptide Bac7 by deep mutational scanning” (BMC Biology, 2022)
